# Publication PMC8623585 (Vaccines, 2021)
# B1: Plant-produced IL6RmAb (anti-IL-6 receptor monoclonal antibody with the amino acid sequence of sarilumab) (antibody, V domains shown)
# VH: EVQLVESGGGLVQPGRSLRLSCAASRFTFDDYAMHWVRQAPGKGLEWVSGISWNSGRIGYADSVKGRFTISRDNAENSLFLQMNGLRAEDTALYYCAKGRDSFDIWGQGTMVTVSS
# VL: DIQMTQSPSSVSASVGDRVTITCRASQGISSWLAWYQQKPGKAPKLLIYGASSLESGVPSRFSGSGSGTDFTLTISSLQPEDFASYYCQQANSFPYTFGQGTKLEIK
# notes: heavy chain of sarilumab; light chain of sarilumab; Full IgG1 with kappa light chain, heterotetramer of ~150 kDa; made in a glycoengineered N. benthamiana line; also called pIL6RmAb; anti-IL6R mAb; copies: 2 + 2
# How the values were obtained:
# Human IL-6 receptor [1] = biological target: T1, Human IL-6 receptor (Homo sapiens, UniProt P08887); assay: cell-based or functional assay
# T1 sequence (P08887 20-365): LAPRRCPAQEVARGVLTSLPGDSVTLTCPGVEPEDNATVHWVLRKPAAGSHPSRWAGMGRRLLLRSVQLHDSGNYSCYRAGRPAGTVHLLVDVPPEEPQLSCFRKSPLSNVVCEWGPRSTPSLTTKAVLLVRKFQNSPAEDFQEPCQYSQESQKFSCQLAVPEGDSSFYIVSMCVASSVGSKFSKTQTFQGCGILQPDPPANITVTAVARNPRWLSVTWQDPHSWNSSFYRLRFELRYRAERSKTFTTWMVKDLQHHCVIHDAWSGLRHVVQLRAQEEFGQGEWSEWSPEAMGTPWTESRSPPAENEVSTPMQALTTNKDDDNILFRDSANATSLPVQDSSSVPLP
# Human IL-6 receptor [2] = biological target: T1, Human IL-6 receptor; assay: ELISA; human IL-6R (2 µg/mL) immobilised on microtiter plates; serial dilutions of pIL6RmAb; detected with HRP-conjugated anti-human-gamma HC antibody; KD by non-linear regression, one-site binding model; details: both partners purified
binder,measurement,setting,value
B1,IC50 of inhibition of IL-6 signaling in luciferase reporter cells (Promega IL-6 Bioassay) with 25 ng/mL (~1.19 nM) recombinant human IL-6; blocks IL-6 with IL-6R,Human IL-6 receptor [1],0.081 µg/mL
same,IC50 of inhibition of IL-6 signaling in luciferase reporter cells (Promega IL-6 Bioassay) with 25 ng/mL (~1.19 nM) recombinant human IL-6; blocks IL-6 with IL-6R (the same IC50 in molar units),Human IL-6 receptor [1],~0.54 nM
same,Kd,Human IL-6 receptor [2],0.083 nM
